According to patent US20230406950A1 (LYVGEN BIOPHARMA, published 2023):

Experiments:
[1] = target: T1, human CD137 expressed on cells (human, UniProt Q07011 24-255); assay: flow cytometry (FACS), MFI, CHO cells expressing human CD137
T1 construct: whole, on cells; also called 4-1BB; TNFRSF9
Method: (§1) Exemplary anti-PD-1/CD137 bi-specific antibodies were analyzed by FACS for their binding properties to human PD-1 and/or human CD137 expressed on CHO cells. Briefly, cultured cells were harvested, counted and cell viability was evaluated using the Trypan Blue exclusion method. Viable cells were then adjusted to 2×10⁶ cells per mL in PBS containing 2% BSA. 100 μL of this cell suspension were further aliquoted per well into a V-bottom 96-well plate. […] After incubation for 2 hours at 4° C., cells were centrifuged (3 min, 1000× g), washed with 250 μL/well BSA-containing FACS Stain Buffer, resuspended and incubated for an additional 1 hour at 4° C. with 100 μL/well fluorochrome-conjugated anti-IgG antibody for detection of the bisepecific antibody. Cells were then washed with 250 μL/well BSA-containing FACS Stain Buffer, resuspended in 100 μL/well FACS Stain Buffer, acquired and analyzed using a FACS machine. Binding of the bispecific antibodies to human PD-1 or human CD137 expressing CHO cells were evaluated and the mean fluorescence intensity is plotted in histograms or dot plots.

[2] = target: T2, human PD-1 expressed on cells (human, UniProt Q15116 25-288); assay: flow cytometry (FACS), MFI, CHO cells expressing human PD-1
T2 construct: whole, on cells; also called human PD-1 over-expressed on the CHO cells; Jurkat/NFkB-Luci/PD-1 cells
T2 sequence (Q15116 25-288): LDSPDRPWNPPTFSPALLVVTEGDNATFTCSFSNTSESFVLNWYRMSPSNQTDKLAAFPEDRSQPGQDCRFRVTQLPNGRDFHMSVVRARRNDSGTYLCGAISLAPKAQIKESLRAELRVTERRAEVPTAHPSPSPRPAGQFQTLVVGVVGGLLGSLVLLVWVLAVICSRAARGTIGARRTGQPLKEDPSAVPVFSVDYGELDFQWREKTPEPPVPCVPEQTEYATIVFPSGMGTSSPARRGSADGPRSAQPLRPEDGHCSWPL
Method: as §1

[3] = target: T3, human CD137 ECD protein (His tag) (human, UniProt Q07011 24-186); assay: bridging ELISA: human CD137 ECD (His tag) coated, antibody titrated, then human PD-1 ECD (mouse IgG2a Fc tag), HRP anti-mouse IgG2a Fc; A450-A620
T3 construct: extracellular domain; also called recombinant human CD137; not shown: His tag
Method: Exemplary anti-PD-1/CD137 bi-specific antibodies were analyzed by ELISA for their simultaneous binding to recombinant human PD-1 and human CD137. Briefly, human CD137 ECD protein (His tag) was diluted and coated onto an ELISA plate with a volume of 100 μL/well by incubation at 4° C. overnight. The next day, the plate was blocked with PBST-BSA buffer, then serially diluted samples of anti-PD-1/CD137 bi-specific antibodies were pipetted into appropriate wells at 50 μL/well, and the plate was incubated for 1 hour followed by washing. The extracellular domain (ECD) of human PD-1 protein (mouse IgG2a Fc tag) was added into the plate at 50 μL/well. After 1-hour incubation at room temperature, HRP-conjugated anti-Mouse IgG, Fc G2a specific antibody was added into the plate at 100 μL/well. The plate was incubated for 1 hour at room temperature followed by washing. TMB substrate solution was added at 100 μL/well and the color development was stopped by adding 100 uL/well Stop Solution (2N H₂SO₄). Absorbance at 450 nm and 620 nm was read by Tecan F200 Pro plate reader. GraphPad 7.0, “[Agonist] vs. response—Variable slope (four parameters)” was used to plot the binding data and calculate binding EC50 values.

T1 sequence (Q07011 24-255): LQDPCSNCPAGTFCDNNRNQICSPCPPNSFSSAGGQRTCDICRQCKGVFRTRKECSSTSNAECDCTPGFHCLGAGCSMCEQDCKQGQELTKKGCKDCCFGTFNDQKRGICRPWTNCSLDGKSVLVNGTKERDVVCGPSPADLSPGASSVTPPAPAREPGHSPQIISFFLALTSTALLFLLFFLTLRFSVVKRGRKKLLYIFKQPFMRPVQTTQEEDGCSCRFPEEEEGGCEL

| Binder | binding result [1] | EC50 (read off the curve) [2] [µg/mL] | binding result [3] | EC50 (read off the curve) [1] [µg/mL] | EC50 (read off the curve) [3] [µg/mL] |
| --- | --- | --- | --- | --- | --- |
| Ly511 (bispecific antibody, human IgG2, kappa, Anti-PD-1/CD137: Ly516 heavy chain fused to Ly1630 scFv (VH-VL); Ly516 light chain) heavy: QVTLKESGPALVKPTQTLTLTCTFSGFSLSTSGTCVSWIRQPPGKALEWLATICWEDSKGYNPSLKSRLTISKDTSKNQAVLTMTNMDPVDTATYYCARREDSGYFWFPYWGQGTLVTVSSASTKGPSVFPLAPCSRSTSESTAALGCLVKDYFPEPVTVSWNSGALTSGVHTFPAVLQSSGLYSLSSVVTVPSSNFGTQTYTCNVDHKPSNTKVDKTVERKCCVECPPCPAPPVAPSVFLFPPKPKDTLMISRTPEVTCVVVDVSHEDPEVQFNWYVDGVEVHNAKTKPREEQFNSTFRVVSVLTVVHQDWLNGKEYKCKVSNKGLPAPIEKTISKTKGQPREPQVYTLPPSREEMTKNQVSLTCLVKGFYPSDIAVEWESNGQPENNYKTTPPMLDSDGSFFLYSKLTVDKSRWQQGNVFSCSVMHEALHNHYTQKSLSLSPGGGGGSGGGGSGGGGSGGGGSQVQLVQSGAEVKKPGASVKVSCKASGYTFAGFEMHWVRQAPGQGLEWMGAIDPKTGGTDYNQKFKDRVTMTRDTSISTAYMELSRLRSDDTAVYYCARDLGYFDVWGQGTLVTVSSGGGGSGGGGSGGGGSGGGGSDIQMTQSPSSLSASVGDRVTITCRASQDIRSNLNWYQQKPGGAVKLLIYYTSRLHSGVPSRFSGSGSGTDYTLTISSLQPEDFATYFCQQSEKLPRTFGGGTKVEIR light: NIQMTQSPSSLSASVGDRVTITCKAGQNVNNYLAWYQQKPGKAPKVLIFNANSLQTGVPSRFSGSGSGTDFTLTISSLQPEDFATYYCQQYNSWPTFGGGTKVEIKRTVAAPSVFIFPPSDEQLKSGTASVVCLLNNFYPREAKVQWKVDNALQSGNSQESVTEQDSKDSTYSLSSTLTLSKADYEKHKVYACEVTHQGLSSPVTKSFNRGEC | – | ~0.2 | – | ~0.2 | ~0.02 |
| Ly456 (bispecific antibody, human IgG1, kappa, Anti-PD-1/CD137: Ly516 heavy chain fused at C-terminus to Ly1630 scFv (VL-VH); Ly516 light chain) heavy: QVTLKESGPALVKPTQTLTLTCTFSGFSLSTSGTCVSWIRQPPGKALEWLATICWEDSKGYNPSLKSRLTISKDTSKNQAVLTMTNMDPVDTATYYCARREDSGYFWFPYWGQGTLVTVSSASTKGPSVFPLAPSSKSTSGGTAALGCLVKDYFPEPVTVSWNSGALTSGVHTFPAVLQSSGLYSLSSVVTVPSSSLGTQTYICNVNHKPSNTKVDKKVEPKSCDKTHTCPPCPAPELLGPSVFLFPPKPKDTLMISRTPEVTCVVVDVSHEDPEVKFNWYVDGVEVHNAKTKPREEQYNSTYRVVSVLTVLHQDWLNGKEYKCKVSNKALPAPIEKTISKAKGQPREPQVYTLPPSREEMTKNQVSLTCLVKGFYPSDIAVEWESNGQPENNYKTTPPVLDSDGSFFLYSKLTVDKSRWQQGNVFSCSVMHEALHNHYTQKSLSLSPGGGGGSGGGGSGGGGSGGGGSDIQMTQSPSSLSASVGDRVTITCRASQDIRSNLNWYQQKPGGAVKLLIYYTSRLHSGVPSRFSGSGSGTDYTLTISSLQPEDFATYFCQQSEKLPRTFGGGTKVEIRGGGGSGGGGSGGGGSGGGGSQVQLVQSGAEVKKPGASVKVSCKASGYTFAGFEMHWVRQAPGQGLEWMGAIDPKTGGTDYNQKFKDRVTMTRDTSISTAYMELSRLRSDDTAVYYCARDLGYFDVWGQGTLVTVSS light: NIQMTQSPSSLSASVGDRVTITCKAGQNVNNYLAWYQQKPGKAPKVLIFNANSLQTGVPSRFSGSGSGTDFTLTISSLQPEDFATYYCQQYNSWPTFGGGTKVEIKRTVAAPSVFIFPPSDEQLKSGTASVVCLLNNFYPREAKVQWKVDNALQSGNSQESVTEQDSKDSTYSLSSTLTLSKADYEKHKVYACEVTHQGLSSPVTKSFNRGEC | – | ~0.2 | – | – | ~0.02 |
| Ly512 (bispecific antibody, human IgG2, kappa, Anti-PD-1/CD137: Ly516 heavy chain; Ly516 light chain fused to Ly1630 scFv (VL-VH)) heavy: QVTLKESGPALVKPTQTLTLTCTFSGFSLSTSGTCVSWIRQPPGKALEWLATICWEDSKGYNPSLKSRLTISKDTSKNQAVLTMTNMDPVDTATYYCARREDSGYFWFPYWGQGTLVTVSSASTKGPSVFPLAPCSRSTSESTAALGCLVKDYFPEPVTVSWNSGALTSGVHTFPAVLQSSGLYSLSSVVTVPSSNFGTQTYTCNVDHKPSNTKVDKTVERKCCVECPPCPAPPVAPSVFLFPPKPKDTLMISRTPEVTCVVVDVSHEDPEVQFNWYVDGVEVHNAKTKPREEQFNSTFRVVSVLTVVHQDWLNGKEYKCKVSNKGLPAPIEKTISKTKGQPREPQVYTLPPSREEMTKNQVSLTCLVKGFYPSDIAVEWESNGQPENNYKTTPPMLDSDGSFFLYSKLTVDKSRWQQGNVFSCSVMHEALHNHYTQKSLSLSPGK light: NIQMTQSPSSLSASVGDRVTITCKAGQNVNNYLAWYQQKPGKAPKVLIFNANSLQTGVPSRFSGSGSGTDFTLTISSLQPEDFATYYCQQYNSWPTFGGGTKVEIKRTVAAPSVFIFPPSDEQLKSGTASVVCLLNNFYPREAKVQWKVDNALQSGNSQESVTEQDSKDSTYSLSSTLTLSKADYEKHKVYACEVTHQGLSSPVTKSFNRGECGGGGSGGGGSGGGGSGGGGSDIQMTQSPSSLSASVGDRVTITCRASQDIRSNLNWYQQKPGGAVKLLIYYTSRLHSGVPSRFSGSGSGTDYTLTISSLQPEDFATYFCQQSEKLPRTFGGGTKVEIRGGGGSGGGGSGGGGSGGGGSQVQLVQSGAEVKKPGASVKVSCKASGYTFAGFEMHWVRQAPGQGLEWMGAIDPKTGGTDYNQKFKDRVTMTRDTSISTAYMELSRLRSDDTAVYYCARDLGYFDVWGQGTLVTVSS | – | ~0.1 | – | – | ~0.02 |

The next lines start with the values.

| binding result [1] | EC50 (read off the curve) [2] [µg/mL] | binding result [3] | EC50 (read off the curve) [1] [µg/mL] | EC50 (read off the curve) [3] [µg/mL] | Binder |
| --- | --- | --- | --- | --- | --- |
| binds | ~0.2 | binds | – | – | Ly460 (bispecific antibody, human IgG1, kappa, Three-chain format: Ly516 heavy chain fused to Ly1630 light chain; Ly516 light chain; Ly1630 VH-CH1) heavy: QVTLKESGPALVKPTQTLTLTCTFSGFSLSTSGTCVSWIRQPPGKALEWLATICWEDSKGYNPSLKSRLTISKDTSKNQAVLTMTNMDPVDTATYYCARREDSGYFWFPYWGQGTLVTVSSASTKGPSVFPLAPSSKSTSGGTAALGCLVKDYFPEPVTVSWNSGALTSGVHTFPAVLQSSGLYSLSSVVTVPSSSLGTQTYICNVNHKPSNTKVDKKVEPKSCDKTHTCPPCPAPELLGPSVFLFPPKPKDTLMISRTPEVTCVVVDVSHEDPEVKFNWYVDGVEVHNAKTKPREEQYNSTYRVVSVLTVLHQDWLNGKEYKCKVSNKALPAPIEKTISKAKGQPREPQVYTLPPSREEMTKNQVSLTCLVKGFYPSDIAVEWESNGQPENNYKTTPPVLDSDGSFFLYSKLTVDKSRWQQGNVFSCSVMHEALHNHYTQKSLSLSPGGGGGSGGGGSGGGGSGGGGSDIQMTQSPSSLSASVGDRVTITCRASQDIRSNLNWYQQKPGGAVKLLIYYTSRLHSGVPSRFSGSGSGTDYTLTISSLQPEDFATYFCQQSEKLPRTFGGGTKVEIRRTVAAPSVFIFPPSDEQLKSGTASVVCLLNNFYPREAKVQWKVDNALQSGNSQESVTEQDSKDSTYSLSSTLTLSKADYEKHKVYACEVTHQGLSSPVTKSFNRGEC light: NIQMTQSPSSLSASVGDRVTITCKAGQNVNNYLAWYQQKPGKAPKVLIFNANSLQTGVPSRFSGSGSGTDFTLTISSLQPEDFATYYCQQYNSWPTFGGGTKVEIKRTVAAPSVFIFPPSDEQLKSGTASVVCLLNNFYPREAKVQWKVDNALQSGNSQESVTEQDSKDSTYSLSSTLTLSKADYEKHKVYACEVTHQGLSSPVTKSFNRGEC QVQLVQSGAEVKKPGASVKVSCKASGYTFAGFEMHWVRQAPGQGLEWMGAIDPKTGGTDYNQKFKDRVTMTRDTSISTAYMELSRLRSDDTAVYYCARDLGYFDVWGQGTLVTVSSASTKGPSVFPLAPSSKSTSGGTAALGCLVKDYFPEPVTVSWNSGALTSGVHTFPAVLQSSGLYSLSSVVTVPSSSLGTQTYICNVNHKPSNTKVDKKVEPKSCDK |
| – | ~0.1 | – | ~0.2 | ~0.03 | Ly513 (bispecific antibody, human IgG2, kappa, Anti-PD-1/CD137: Ly516 heavy chain; Ly516 light chain fused to Ly1630 scFv (VH-VL)) heavy: QVTLKESGPALVKPTQTLTLTCTFSGFSLSTSGTCVSWIRQPPGKALEWLATICWEDSKGYNPSLKSRLTISKDTSKNQAVLTMTNMDPVDTATYYCARREDSGYFWFPYWGQGTLVTVSSASTKGPSVFPLAPCSRSTSESTAALGCLVKDYFPEPVTVSWNSGALTSGVHTFPAVLQSSGLYSLSSVVTVPSSNFGTQTYTCNVDHKPSNTKVDKTVERKCCVECPPCPAPPVAPSVFLFPPKPKDTLMISRTPEVTCVVVDVSHEDPEVQFNWYVDGVEVHNAKTKPREEQFNSTFRVVSVLTVVHQDWLNGKEYKCKVSNKGLPAPIEKTISKTKGQPREPQVYTLPPSREEMTKNQVSLTCLVKGFYPSDIAVEWESNGQPENNYKTTPPMLDSDGSFFLYSKLTVDKSRWQQGNVFSCSVMHEALHNHYTQKSLSLSPGK light: NIQMTQSPSSLSASVGDRVTITCKAGQNVNNYLAWYQQKPGKAPKVLIFNANSLQTGVPSRFSGSGSGTDFTLTISSLQPEDFATYYCQQYNSWPTFGGGTKVEIKRTVAAPSVFIFPPSDEQLKSGTASVVCLLNNFYPREAKVQWKVDNALQSGNSQESVTEQDSKDSTYSLSSTLTLSKADYEKHKVYACEVTHQGLSSPVTKSFNRGECGGGGSGGGGSGGGGSGGGGSQVQLVQSGAEVKKPGASVKVSCKASGYTFAGFEMHWVRQAPGQGLEWMGAIDPKTGGTDYNQKFKDRVTMTRDTSISTAYMELSRLRSDDTAVYYCARDLGYFDVWGQGTLVTVSSGGGGSGGGGSGGGGSGGGGSDIQMTQSPSSLSASVGDRVTITCRASQDIRSNLNWYQQKPGGAVKLLIYYTSRLHSGVPSRFSGSGSGTDYTLTISSLQPEDFATYFCQQSEKLPRTFGGGTKVEIR |
